The results in this text go back to article PMC7618248, “VEL-dependent polymerization maintains the chromatin association of Polycomb proteins for the switch to epigenetic silencing” (Molecular cell, 2025).

This data set deals with the molecule itself. Put plainly: SEC-MALS; purified Lip-VIN3VEL at increasing concentrations from 50 uM to 1250 uM; Superose6 Increase 10/300 column. Background: Size exclusion chromatography separates by hydrodynamic size, large species first.

B1: Lip-VIN3VEL (residues 500-603) wild type (domain or fragment, Arabidopsis thaliana, UniProt Q9FIE3 500-603, looked up)
chain: GKQGGNKRFKSRTVSLNEKPEINNAANGVGDKDLGHIVKTIRCLEEEGHIDKSFRERFLTWYSLRATHREVRVVKIFVETFMEDLSSLGQQLVDTFSESILSKR
notes: VIN3 VEL domain construct, Arabidopsis thaliana, residues 500-603; The end of the tag is read from the name Lip-VIN3VEL; also called WT VIN3VEL; 6xHisLip-tagged VIN3VEL; source: Escherichia coli, purified; not shown: 6xHis-Lip (lipoyl solubility tag), N-terminal, kept
For the protein B1, the binding result is on record as “binds”.

B2: Lip-VIN3VEL (residues 500-603) I575T (domain or fragment, Arabidopsis thaliana, UniProt Q9FIE3 500-603, looked up)
chain: GKQGGNKRFKSRTVSLNEKPEINNAANGVGDKDLGHIVKTIRCLEEEGHIDKSFRERFLTWYSLRATHREVRVVKTFVETFMEDLSSLGQQLVDTFSESILSKR
notes: VIN3 VEL domain construct, Arabidopsis thaliana, residues 500-603, with I575 changed to the threonine found at the corresponding position of VRN5; The end of the tag is read from the name Lip-VIN3VEL; also called I575T mutant Lip-VIN3VEL; VIN3VEL I575T; source: Escherichia coli, purified; not shown: 6xHis-Lip (lipoyl solubility tag), N-terminal, kept
With B2, the binding result was “binds”.
